# According to patent US11471462B2, “Compositions and methods for detecting and treating diabetes” (THE BROAD INSTITUTE, INC., priority 2016, dated 2022):
# B1: XPO5 (protein)
# chain: AMDQVNALCEQLVKAVTVMMDPNSTQRYRLEALKFCEEFKEKCPICVPCGLRLAEKTQVAIVRHFGLQILEHVVKFRWNGMSRLEKVYLKNSVMELIANGTLNILEEENHIKDALSRIVVEMIKREWPQHWPDMLIELDTLSKQGETQTELVMFILLRLAEDVVTFQTLPPQRRRDIQQTLTQNMERIFSFLLNTLQENVNKYQQVKTDTSQESKAQANCRVGVAALNTLAGYIDWVSMSHITAENCKLLEILCLLLNEQELQLGAAECLLIAVSRKGKLEDRKPLMVLFGDVAMHYILSAAQTADGGGLVEKHYVFLKRLCQVLCALGNQLCALLGADSDVETPSNFGKYLESFLAFTTHPSQFLRSSTQMTWGALFRHEILSRDPLLLAIIPKYLRASMTNLVKMGFPSKTDSPSCEYSRFDFDSDEDFNAFFNSSRAQQGEVMRLACRLDPKTSFQMAGEWLKYQLSTFLDAGSVNSCSAVGTGEGSLCSVFSPSFVQWEAMTLFLESVITQMFRTLNREEIPVNDGIELLQMVLNFDTKDPLILSCVLTNVSALFPFVTYRPEFLPQVFSKLFSSVTFETVEESKAPRTRAVRNVRRHACSSIIKMCRDYPQLVLPNFDMLYNHVKQLLSNELLLTQMEKCALMEALVLISNQFKNYERQKVFLEELMAPVASIWLSQDMHRVLSDVDAFIAYVGTDQKSCDPGLEDPCGLNRARMSFCVYSILGVVKRTCWPTDLEEAKAGGFVVGYTSSGNPIFRNPCTEQILKLLDNLLALIRTHNTLYAPEMLAKMAEPFTKALDMLDAEKSAILGLPQPLLELNDSPVFKTVLERMQRFFSTLYENCFHILGKAGPSMQQDFYTVEDLATQLLSSAFVNLNNIPDYRLRPMLRVFVKPLVLFCPPEHYEALVSPILGPLFTYLHMRLSQKWQVINQRSLLCGEDEAADENPESQEMLEEQLVRMLTREVMDLITVCCVSKKGADHSSAPPADGDDEEMMATEVTPSAMAELTDLGKCLMKHEDVCTALLITAFNSLAWKDTLSCQRTTSQLCWPLLKQVLSGTLLADAVTWLFTSVLKGLQMHGQHDGCMASLVHLAFQIYEALRPRYLEIRAVMEQIPEIQKDSLDQFDCKLLNPSLQKVADKRRKDQFKRLIAGCIGKPLGEQFRKEVHIKNLPSLFKKTKPMLETEVLDNDGGGLATIFEP
# B2: VDAC2 (protein)
# chain: MSWCNELRLPALKQHSIGRGLESHITMCIPPSYADLGKAARDIFNKGFGFGLVKLDVKTKSCSGVEFSTSGSSNTDTGKVTGTLETKYKWCEYGLTFTEKWNTDNTLGTEIAIEDQICQGLKLTFDTTFSPNTGKKSGKIKSSYKRECINLGCDVDFDFAGPAIHGSAVFGYEGWLAGYQMTFDSAKSKLTRNNFAVGYRTGDFQLHTNVNDGTEFGGSIYQKVCEDLDTSVNLAWTSGTNCTRFGIAAKYQLDPTASISAKVNNSSLIGVGYTQTLRPGVKLTLSALVDGKSINAGGHKVGLALELEA
# B3: MAGED1 (protein)
# chain: MAQKMDCGAGLLGFQNPDACRAVCHPLPQPPASTLPLSAFPTLCDPPYSQLRDPPAVLSCYCTPLGASPAPAEASVEDSALLMQTLMEAIQISEAPPTNQATAAASPQSSQPPTANEMADIQVSAAAARPKSAFKVQNATTKGPNGVYDFSQAHNAKDVPNTQPKAAFKSQNATPKGPNAAYDFSQAATTGELAANKSEMAFKAQNATTKVGPNATYNFSQSLNANDLANSRPKTPFKAWNDTTKAPTADTQTQNVNQAKMATSQADIETDPGISEPDGATAQTSADGSQAQNLESRTIIRGKRTRKINNLNVEENSSGDQRRAPLAAGTWRSAPVPVTTQNPPGAPPNVLWQTPLAWQNPSGWQNQTARQTPPARQSPPARQTPPAWQNPVAWQNPVIWPNPVIWQNPVIWPNPIVWPGPVVWPNPLAWQNPPGWQTPPGWQTPPGWQGPPDWQGPPDWPLPPDWPLPPDWPLPTDWPLPPDWIPADWPIPPDWQNLRPSPNLRPSPNSRASQNPGAAQPRDVALLQERANKLVKYLMLKDYTKVPIKRSEMLRDIIREYTDVYPEIIERACFVLEKKFGIQLKEIDKEEHLYILISTPESLAGILGTTKDTPKLGLLLVILGVIFMNGNRASEAVLWEALRKMGLRPGVRHPLLGDLRKLLTYEFVKQKYLDYRRVPNSNPPEYEFLWGLRSYHETSKMKVLRFIAEVQKRDPRDWTAQFMEAADEALDALDAAAAEAEARAEARTRMGIGDEAVSGPWSWDDIEFELLTWDEEGDFGDPWSRIPFTFWARYHQNARSRFPQTFAGPIIGPGGTASANFAANFGAIGFFWVE
# B4: ADCK4 (protein)
# chain: MWLKVGGLLRGTGGQLGQTVGWPCGALGPGPHRWGPCGGSWAQKFYQDGPGRGLGEEDIRRAREARPRKTPRPQLSDRSRERKVPASRISRLANFGGLAVGLGLGVLAEMAKKSMPGGRLQSEGGSGLDSSPFLSEANAERIVQTLCTVRGAALKVGQMLSIQDNSFISPQLQHIFERVRQSADFMPRWQMLRVLEEELGRDWQAKVASLEEVPFAAASIGQVHQGLLRDGTEVAVKIQYPGIAQSIQSDVQNLLAVLKMSAALPAGLFAEQSLQALQQELAWECDYRREAACAQNFRQLLANDPFFRVPAVVKELCTTRVLGMELAGGVPLDQCQGLSQDLRNQICFQLLTLCLRELFEFRFMQTDPNWANFLYDASSHQVTLLDFGASREFGTEFTDHYIEVVKAAADGDRDCVLQKSRDLKFLTGFETKAFSDAHVEAVMILGEPFATQGPYDFGSGETARRIQDLIPVLLRHRLCPPPEETYALHRKLAGAFLACAHLRAHIACRDLFQDTYHRYWASRQPDAATAGSLPTKGDSWVDPS
# B5: TECR (protein)
# chain: MKHYEVEILDAKTREKLCFLDKVEPHATIAEIKNLFTKTHPQWYPARQSLRLDPKGKSLKDEDVLQKLPVGTTATLYFRDLGAQISWVTVFLTEYAGPLFIYLLFYFRVPFIYGHKYDFTSSRHTVVHLACICHSFHYIKRLLETLFVHRFSHGTMPLRNIFKNCTYYWGFAAWMAYYINHPLYTPPTYGAQQVKLALAIFVICQLGNFSIHMALRDLRPAGSKTRKIPYPTKNPFTWLFLLVSCPNYTYEVGSWIGFAIMTQCLPVALFSLVGFTQMTIWAKGKHRSYLKEFRDYPPLRMPIIPFLL
# B6: AUP1 (protein)
# chain: MELPSGPGPERLFDSHRLPGDCFLLLVLLLYAPVGFCLLVLRLFLGIHVFLVSCALPDSVLRRFVVRTMCAVLGLVARQEDSGLRDHSVRVLISNHVTPFDHNIVNLLTTCSTPLLNSPPSFVCWSRGFMEMNGRGELVESLKRFCASTRLPPTPLLLFPEEEATNGREGLLRFSSWPFSIQDVVQPLTLQVQRPLVSVTVSDASWVSELLWSLFVPFTVYQVRWLRPVHRQLGEANEEFALRVQQLVAKELGQTGTRLTPADKAEHMKRQRHPRLRPQSAQSSFPPSPGPSPDVQLATLAQRVKEVLPHVPLGVIQRDLAKTGCVDLTITNLLEGAVAFMPEDITKGTQSLPTASASKFPSSGPVTPQPTALTFAKSSWARQESLQERKQALYEYARRRFTERRAQEAD
# B7: PSMA3 (protein)
# chain: SSIGTGYDLSASTFSPDGRVFQVEYAMKAVENSSTAIGIRCKDGVVFGVEKLVLSKLYEEGSNKRLFNVDRHVGMAVAGLLADARSLADIAREEASNFRSNFGYNIPLKHLADRVAMYVHAYTLYSAVRPFGCSFMLGSYSVNDGAQLYMIDPSGVSYGYWGCAIGKARQAAKTEIEKLQMKEMTCRDIVKEVAKIIYIVHDEVKDKAFELELSWVGELTNGRHEIVPKDIREEAEKYAKESLKEEDESDDDNM
# B8: PHGDH (protein)
# chain: AFANLRKVLISDSLDPCCRKILQDGGLQVVEKQNLSKEELIAELQDCEGLIVRSATKVTADVINAAEKLQVVGRAGTGVDNVDLEAATRKGILVMNTPNGNSLSAAELTCGMIMCLARQIPQATASMKDGKWERKKFMGTELNGKTLGILGLGRIGREVATRMQSFGMKTIGYDPIISPEVSASFGVQQLPLEEIWPLCDFITVHTPLLPSTTGLLNDNTFAQCKKGVRVVNCARGGIVDEGALLRALQSGQCAGAALDVFTEEPPRDRALVDHENVISCPHLGASTKEAQSRCGEEIAVQFVDMVKGKSLTGVVNAQALTSAFSPHTKPWIGLAEALGTLMRAWAGSPKGTIQVITQGTSLKNAGNCLSPAVIVGLLKEASKQADVNLVNAKLLVKEAGLNVTTSHSPAAPGEQGFGECLLAVALAGAPYQAVGLVQGTTPVLQGLNGAVFRPEVPLRRDLPLLLFRTQTSDPAMLPTMIGLLAEAGVRLLSYQTSLVSDGETWHVMGISSLLPSLEAWKQHVTEAFQFHF
# Test system: SLC16A11
# Assay: SLC16A11 protein-protein interaction study (immunoprecipitation, quantitative mass spectrometry)
# Parameters: species or system human
# Conditions: putative SLC16A11^REF interaction partners; immunoprecipitation from HEK293T cells vs empty vector control; Blandt-Altman
# Text: Alternatively, these variants may result in reduced transport because they disrupt protein-protein interactions responsible for correct SLC16A11 function. To explore this possibility, SLC16A11 was immunoprecipitated from HEK293T cells expressing either REF or T2D risk SLC16A11-V5 or empty vector control and quantitative mass spectrometry was used to define the SLC16A11 interactome.
# Another mechanism through which the variants could affect activity is through disruption of protein-protein interactions. To explore this possibility, quantitative mass spectrometry-based protein-protein interaction studies were performed to define the SLC16A11 interactome and evaluate if the T2D risk coding variants alter any interactions.
# Beads were then washed once with lysis buffer and three times with wash buffer. After the last wash, residual wash buffer was removed, 10 μL fresh wash buffer was added, and beads were stored at −80° C. until analysis by the Proteomics Platform at the Broad Institute, as detailed in the “Proteomics Methods for SLC16A11 Protein Interaction Studies” below.
# The beads from immunopurification were washed once with IP lysis buffer, then three times with PBS, the three different lysates of each replicate were resuspended in 90 uL digestion buffer (2M Urea, 50 mM Tris HCl), 2 ug of sequencing grade trypsin added, 1 hour shaking at 700 rpm. The supernatant was removed and placed in a fresh tube. The beads were then washed twice with 50 uL digestion buffer and combined with the supernatant. The combined supernatants were reduced (2 uL 500 mM DTT, 30 minutes, RT), alkylated (4 uL 500 mM IAA, 45 minutes, dark) and a longer overnight digestion performed: 2 ug (4 uL) trypsin, shake o/n, The samples were then quenched with 20 uL 10% FA and desalted on 10 mg SepPak columns.
# Desalted peptides were labelled with iTRAQ reagents according to the manufacturer's instructions (AB Sciex, Foster City, Calif.). Peptides were dissolved in 30 μl of 0.5 M TEAB pH 8.5 solution and labeling reagent was added in 70 ul of ethanol. After 1 h incubation the reaction was stopped with 50 mM Tris/HCl pH 7.5. Differentially labelled peptides were mixed and subsequently desalted on 10 mg SepPak columns.
# Reconstituted peptides were separated on an online nanoflow EASY-nLC 1000 UHPLC system (Thermo Fisher Scientific) and analyzed on a benchtop Orbitrap Q Exactive Plus mass spectrometer (Thermo Fisher Scientific). The peptide samples were injected onto a capillary column (Picofrit with 10 μm tip opening/75 μm diameter, New Objective, PF360-75-10-N-5) packed in-house with 20 cm C18 silica material (1.9 μm ReproSil-Pur C18-AQ medium, Dr. Maisch GmbH, r119.aq). The UHPLC setup was connected with a custom-fit microadapting tee (360 μm, IDEX Health & Science, UH-753), and capillary columns were heated to 50° C. in column heater sleeves (Phoenix-ST) to reduce backpressure during UHPLC separation. Injected peptides were separated at a flow rate of 200 nL/min with a linear 80 min gradient from 100% solvent A (3% acetonitrile, 0.1% formic acid) to 30% solvent B (90% acetonitrile, 0.1% formic acid), followed by a linear 6 min gradient from 30% solvent B to 90% solvent B. Each sample was run for 120 min, including sample loading and column equilibration times. The Q Exactive instrument was operated in the data-dependent mode acquiring HCD MS/MS scans (R=17,500) after each MS1 scan (R=70,000) on the 12 top most abundant ions using an MS1 ion target of 3×10^6 ions and an MS2 target of 5×10^4 ions. The maximum ion time utilized for the MS/MS scans was 120 ms; the HCD-normalized collision energy was set to 27; the dynamic exclusion time was set to 20 s, and the peptide match and isotope exclusion functions were enabled.
# All mass spectra were processed using the Spectrum Mill software package v6.0 pre-release (Agilent Technologies) which includes modules developed by us for iTRAQ-based quantification. […]
row,Molecule,BA log fold change
1,B1,1.14
2,B2,1.14
3,B3,1.09
4,B4,1.11
5,B5,1.10
6,B6,1.10
7,B7,1.09
8,B8,1.11
